Laboratory results from patent US20200268847A1, “Methods of Treating Newly Diagnosed Multiple Myeloma with a Combination of An Antibody that Specifically Binds CD38, Lenalidomide and Dexamethasone” (Janssen Biotech, Inc., priority 2019, published 2020).

Columns and labels:
[1] = test system: minimal residual disease (clonal multiple myeloma cells in bone marrow); assay: MAIA: minimal residual disease in bone marrow aspirates by next-generation sequencing (clonoSEQ version 2.0); format: in vivo, human; settings: threshold 1 tumor cell per 10^5 white cells
Excerpt: MRD status may be assessed from bone marrow aspirate samples using for example next generation sequencing (NGS) of immunoglobulin heavy and light chains. The updated, analytically validated version of the clonoSEQ® Assay (Version 2) by Adaptive Biotechnologies may be used for the detection, quantification and analysis of MRD.
A central laboratory performed disease evaluations (serum and 24-hour urine samples) every 28 days for 2 years, and then every 8 weeks until disease progression. For patients with positive serum immunofixation and daratumumab (DARZALEX®) interference, complete responses were confirmed using reflex assays (McCudden et al., Clin Chem Lab Med 54:1095-1104, 2016). Minimal residual disease was evaluated by next-generation sequencing assays (clonoSEQ® version 2.0; Adaptive Biotechnologies) on bone marrow aspirates collected at baseline, at time of suspected complete or stringent complete response (undetectable M-protein on two consecutive serum and urine electrophoresis tests), and at 12, 18, 24, and 30 months post-first dose in patients who achieved a complete response or better.

[2] = test system: transplant-ineligible newly diagnosed multiple myeloma (NDMM); assay: MAIA subgroup analysis by age (<75 vs ≥75 y): efficacy; format: in vivo, human; settings: for PFS HR (95% CI): DRd vs Rd
Protocol: To examine the impact of age on the efficacy and safety of D-Rd vs Rd in this patient population, a subgroup analysis was conducted within patients <75 and >75 y of age.
Transplant-ineligible NDMM patients were randomized 1:1 to Rd±DARA; stratification was based on age (<75 vs >75 years), ISS (I, II, III), and region (North America vs Other). In standard Rd dosing, patients received 28-day cycles of lenalidomide 25 mg PO QD on Days 1-21 and dexamethasone 40 mg PO on Days 1, 8, 15 and 22 until progression. A portion of patients received 10 mg lenalidomide and 20 mg dexamethasone at the beginning of the treatment. In the DRd arm, patients received daratumumab (DARZALEX®) 16 mg/kg IV QW for Cycles 1-2, Q2W for Cycles 3-6, and Q4W thereafter until progression. PFS was the primary endpoint.

[3] = test system: patients with newly diagnosed multiple myeloma ineligible for HDC and ASCT; assay: MAIA: safety, adverse events graded by NCI-CTCAE version 4, treatment discontinuations
Excerpt: Safety will be measured by adverse events, laboratory test results, ECGs, vital sign measurements, physical examination findings, and assessment of ECOG performance status score.
Safety analyses included adverse event assessment graded in severity according to NCI-CTCAE version 4, electrocardiograms, clinical laboratory testing, physical examinations, and vital signs.
The safety population included patients who received any dose of trial treatment.

[4] = Grade 3 or 4, safety population

## daratumumab (DARZALEX®) group: daratumumab (DARZALEX®) in combination with lenalidomide and dexamethasone
[1]; ITT population
  Negative status for minimal residual disease: 89 (24.2) no. (%)
[1]
  negative status for minimal residual disease, times as high as in the control group: more than 3 times
[1]; ITT, P<0.0001
  patients minimal residual disease-negative: 24.2%
[2]; <75 y
  30-mo PFS: 75%
  MRD-negative rate (10^−5): 28%
  ORR: 95%
  ≥CR: 52%
  ≥VGPR: 81%
[2]; <75 y, listed as D-Rd
  PFS HR (95% CI): 0.50
[2]; <75 y, listed as DRd
  PFS HR (95% CI): 0.50 (0.35-0.71)
[2]; <75 y, median follow-up 28 months, listed as D-Rd
  PFS Median: not reached
[2]; ≥75 y
  30-mo PFS: 66%
  MRD-negative rate (10^−5): 19%
  ORR: 90%
  ≥CR: 41%
  ≥VGPR: 77%
[2]; ≥75 y, listed as D-Rd
  PFS HR (95% CI): 0.63
[2]; ≥75 y, listed as DRd
  PFS HR (95% CI): 0.63 (0.44-0.92)
[3]
  patients with adverse events leading to discontinuation of trial treatment: 7.1%
[3]; % of patients
  adverse events leading to death: 6.9%
  invasive second primary malignancies: 3.3%
  pneumonia as adverse event leading to death: 0.5%
  pneumonia as serious adverse event: 13.2%
  serious adverse events: 62.9%
[3]; Any Grade, safety population
  Any infusion-related reaction: 149 (40.9) number of patients (percent)
  Asthenia: 117 (32.1) number of patients (percent)
  Back pain: 123 (33.8) number of patients (percent)
  Constipation: 149 (40.9) number of patients (percent)
  Diarrhea: 207 (56.9) number of patients (percent)
  Fatigue: 147 (40.4) number of patients (percent)
  Invasive second primary malignancy: 12 (3.3) number of patients (percent)
  Nausea: 115 (31.6) number of patients (percent)
  Peripheral edema: 140 (38.5) number of patients (percent)
  Second primary malignancy: 32 (8.8) number of patients (percent)
  anemia: 126 (34.6) number of patients (percent)
  leukopenia: 68 (18.7) number of patients (percent)
  lymphopenia: 66 (18.1) number of patients (percent)
  pneumonia: 82 (22.5) number of patients (percent)
[3]; Any Grade, safety population (N = 364 vs 365)
  neutropenia: 207 (56.9) number of patients (percent)
[3]; [4]
  Any infusion-related reaction: 10 (2.7) number of patients (percent)
  Asthenia: 16 (4.4) number of patients (percent)
  Back pain: 11 (3.0) number of patients (percent)
  Constipation: 6 (1.6) number of patients (percent)
  Diarrhea: 24 (6.6) number of patients (percent)
  Fatigue: 29 (8.0) number of patients (percent)
  Nausea: 5 (1.4) number of patients (percent)
  Peripheral edema: 7 (1.9) number of patients (percent)
  anemia: 43 (11.8) number of patients (percent)
  leukopenia: 40 (11.0) number of patients (percent)
  lymphopenia: 55 (15.1) number of patients (percent)
  neutropenia: 182 (50.0) number of patients (percent)
  pneumonia: 50 (13.7) number of patients (percent)
[3]; at clinical cutoff date Sep. 24, 2018
  treatment discontinued due to adverse events: 7.4%
[3]; grade 3/4 adverse events
  anemia: 11.8%
  leukopenia: 11.0%
  lymphopenia: 15.1%
  neutropenia: 50.0%
  pneumonia: 13.7%
[3]; in vivo
  discontinued treatment due to neutropenia: no patients
  invasive second primary malignancies: hematologic malignancies: 0.5%
  invasive second primary malignancies: solid tumors: 2.7%
  lenalidomide dose delays, reductions, re-escalations, or skipping (combined) due to treatment-emergent adverse events: 77.5%
  lenalidomide dose discontinuations due to treatment-emergent adverse events: 20.9%
